# Results published in patent publication US20180305450A1 (AstraZeneca / MedImmune, published 2018).
# Where a chain is given by its changes, count along the chain named.
# B1: PaB670010 scFv (scFv, V domains shown)
# VH: EVQLLESGGGLVQPGGSLRLSCAASGFTFSSYAMNWVRQAPGKGLEWVSTISYSGSLIHYADSVKGRFTISRDNSKNTLYLQMNSLRAEDTAVYYCARINNDPMDVWGQGTLVTVSS
# VL: SIELTQPPSVSVSPGQTASITCSGDNLGKKYVQWYQQKPGQSPVLVIYDDSNRPSGIPERFSGSNSGNTATLTISGTQAMDEADYYCQTWDGNPTTGETNVFGGGTKLTVL
# notes: purified scFv; also called ZZ1DRB-B08
# B2: PaB670034 scFv (scFv, V domains shown)
# VH: B1 VH with H59S
# VL: B1 VL with T96H
# notes: purified scFv; also called ZZ1IGF-B11
# B3: PaB670085 scFv (scFv, V domains shown)
# VH: B1 VH with S54H, L57H, H59S, A61H, D62H, V64H
# VL: B1 VL
# notes: purified scFv; also called ZZ1ODR-A02
# B4: PaB670082 scFv (scFv, V domains shown)
# VH: B1 VH with Y53H, G55H, H59S, D62H, K65H
# VL: B1 VL
# notes: purified scFv; also called ZZ1OZA-D02
# B5: PaB670064 scFv (scFv, V domains shown)
# VH: B1 VH with H59S
# VL: B1 VL with Q88H, D91H, G92H, T95H, V101H
# notes: purified scFv; also called ZZ1KX6-B09
# B6: PaB670066 scFv (scFv, V domains shown)
# VH: B1 VH with H59S
# VL: B1 VL with Q88H, T89H, D91H, P94H, T95H, V101H
# notes: purified scFv; also called ZZ1KX6-D05
# B7: PaB670081 scFv (scFv, V domains shown)
# VH: B1 VH with Y53H, S56H, L57H, H59S, Y60H, A61H, V64H, K65H
# VL: B1 VL
# notes: purified scFv; also called ZZ1OZA-C01
# B8: PaB670067 scFv (scFv, V domains shown)
# VH: B1 VH with H59S
# VL: B1 VL with Q88H, D91H, G92H, N93H, T96H, T99H
# notes: purified scFv; also called ZZ1KXE-A05
# B9: PaB670070 scFv (scFv, V domains shown)
# VH: B1 VH with H59S
# VL: B1 VL with G92H, P94H, T95H, E98H
# notes: purified scFv; also called ZZ1KXE-D06
# B10: PaB670080 scFv (scFv, V domains shown)
# VH: B1 VH with H59S
# VL: B1 VL with N93H, P94H, T95H, V101H
# notes: purified scFv
# B11: PaB670020 scFv (scFv, V domains shown)
# VH: B1 VH with H59S, N101H
# VL: B1 VL
# notes: purified scFv; also called ZZ1IGD-D05
# B12: PaB670078 scFv (scFv, V domains shown)
# VH: B1 VH with H59S
# VL: B1 VL with Q88H, T89H, D91H, N93H, T95H, T99H
# notes: purified scFv; also called ZZ1OZJ-G03
# B13: PaB670075 scFv (scFv, V domains shown)
# VH: B1 VH with H59S
# VL: B1 VL with T89H, P94H, T95H, T96H, V101H
# notes: purified scFv; also called ZZ1NHH-A05
# B14: PaB670083 scFv (scFv, V domains shown)
# VH: B1 VH with S52H, Y53H, S56H, I58H, H59S, Y60H, S63H
# VL: B1 VL
# notes: purified scFv; also called ZZ1OZB-H05
# B15: PaB670084 scFv (scFv, V domains shown)
# VH: B1 VH with Y53H, S56H, Y60H, V64H
# VL: B1 VL
# notes: purified scFv; also called ZZ1PXA-A05
# B16: PaB670048 scFv (scFv, V domains shown)
# VH: B1 VH with H59S, N100H, N101H, V106H
# VL: B1 VL
# notes: purified scFv; also called ZZ1KX4-E11
# B17: PaB670071 scFv (scFv, V domains shown)
# VH: B1 VH with H59S
# VL: B1 VL with Q88H, D91H, G92H, N93H, P94H, T95H, T99H, V101H
# notes: purified scFv; also called ZZ1L3F-A02
# B18: PaB670077 scFv (scFv, V domains shown)
# VH: B1 VH with H59S
# VL: B1 VL with Q88H, T89H, D91H, N93H, P94H, V101H
# notes: purified scFv; also called ZZ1OZJ-C11
# B19: PaB670076 scFv (scFv, V domains shown)
# VH: B1 VH with H59S
# VL: B1 VL with Q88H, G92H, N93H, P94H, T99H
# notes: purified scFv; also called ZZ1NHH-F09
# B20: PaB670045 scFv (scFv, V domains shown)
# VH: B1 VH with H59S, N100H, N101H
# VL: B1 VL
# notes: purified scFv; also called ZZ1KX3-F01
# B21: PaB670068 scFv (scFv, V domains shown)
# VH: B1 VH with H59S
# VL: B1 VL with N93H, P94H, T96H, T99H, N100H
# notes: purified scFv; also called ZZ1KXE-B01
# B22: PaB670073 scFv (scFv, V domains shown)
# VH: B1 VH with H59S
# VL: B1 VL with T89H, D91H, N93H, T95H, T96H, T99H
# notes: purified scFv; also called ZZ1L3F-H03
# B23: PaB670079 scFv (scFv, V domains shown)
# VH: B1 VH with H59S
# VL: B1 VL with T89H, N93H, P94H, V101H
# notes: purified scFv; also called ZZ1OZJ-G05
# Target: T1, recombinant biotinylated human PAR2 extracellular domain (residues 1-75), N-terminal AviTag, C-terminal Flag … (human, UniProt P55085 26-75, biotin on the AviTag (enzymatic biotinylation))
# T1 construct: also called Bio-human-PAR2 ECD; human PAR2 ECD; not shown: N-terminal AviTag (Avidity LLC); C-terminal Flag and poly Histidine tags
# T1 sequence (P55085 26-75): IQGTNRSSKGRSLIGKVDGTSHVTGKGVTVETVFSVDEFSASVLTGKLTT
# Assay: HTRF competition with Par0067 IgG, pH 6.0, scFv
# Method: (§1) 5 μl/well of the appropriate pH 4.44 nM Par0067 IgG solution was added to all wells of the relevant assay plate (pH 7.4 and pH 6.0).
# (§2) Test scFv Preparation/Addition: [0172] a) For parallel single point HTS of crude un-purified bacterial lysate scFv samples at both pH 7.4 and pH 6.0 samples were first pre-diluted to 40% of their neat concentration using either pH 7.4 or pH 6.0 assay buffer as appropriate. Subsequently 5 μl of 40% pre-diluted sample was then transferred into the appropriate assay (pH 7.4 or pH 6.0) in order to give a final assay sample concentration of 10.0% (in the 20 μl final assay volume). The parent Par0067 scFv was included in all HTS experiments as a control as were specific pH dependent antibodies as those became available (for benchmarking). […] Duplicate 11 point 1:3 serial dilutions then were prepared on 384 well polypropylene Greiner plates in each of the two assay buffers (pH 7.4 & 6.0). 5 μl per well of each serial dilution was transferred from the relevant pH scFv dilution plate to the corresponding assay plate (pH 7.4 and pH 6.0). 5 μl of the appropriate pH assay buffer was added to the total and non-specific wells. The parent Par0067 purified scFv was included in all multipoint dose response IC₅₀ experiments as a control as were specific pH dependent purified scFv as those became available (for benchmarking).
# (§3) For multipoint dose response curves % Specific Binding values were plotted versus test purified antibody concentration (scFv or IgG). IC₅₀ values were determined via a sigmoidal dose response inhibition variable slope curve fit (4 parameter logistic equation) using Graphpad Prism Software.
row,Binder,IC50
1,B1,41.8 nM
2,B2,14.2 nM
3,B3,155 nM
4,B4,77.9 nM
5,B5,290 nM
6,B6,487 nM
7,B7,260 nM
8,B8,113 nM
9,B9,270 nM
10,B10,158 nM
11,B11,18.5 nM
12,B12,319 nM
13,B13,603 nM
14,B14,152 nM
15,B15,283 nM
16,B16,139 nM
17,B17,425 nM
18,B18,620 nM
19,B19,292 nM
20,B20,72.5 nM
21,B21,448 nM
22,B22,428 nM
23,B23,490 nM

# Target: T1, recombinant biotinylated human PAR2 …
# Assay: HTRF competition with Par0067 IgG, scFv
# Method: as §1, §2, §3
Binder,Fold IC50 (pH 6.0 v pH 7.4),Fold IC50 pH 7.4 (Variant v Par0067)
B1,2.7 fold,4.7 fold
B2,2.5 fold,1.7 fold
B3,3.2 fold,14.6 fold
B4,3.1 fold,7.7 fold
B5,4.3 fold,20.3 fold
B6,9.3 fold,15.8 fold
B7,5.1 fold,15.6 fold
B8,7.9 fold,4.4 fold
B9,4.5 fold,18.3 fold
B10,9.5 fold,5 fold
B11,3.3 fold,1.7 fold
B12,9.6 fold,10.1 fold
B13,5.9 fold,30.8 fold
B14,3.4 fold,13.7 fold
B15,5.2 fold,16.5 fold
B16,9.6 fold,4.4 fold
B17,4.2 fold,30.7 fold
B18,11.2 fold,16.8 fold
B19,6.3 fold,14 fold
B20,7.4 fold,3 fold
B21,5.8 fold,23.6 fold
B22,5.9 fold,21.8 fold
B23,11.1 fold,13.4 fold

# Target: T1, recombinant biotinylated human PAR2 …
# Assay: HTRF competition with Par0067 IgG, pH 7.4, scFv
# Method: as §1, §2, §3
row,Binder,IC50
1,B1,15.4 nM
2,B2,5.6 nM
3,B3,48.1 nM
4,B4,25.4 nM
5,B5,67.1 nM
6,B6,52.2 nM
7,B7,51.4 nM
8,B8,14.4 nM
9,B9,60.4 nM
10,B10,16.6 nM
11,B11,5.6 nM
12,B12,33.3 nM
13,B13,102 nM
14,B14,45.2 nM
15,B15,54.5 nM
16,B16,14.5 nM
17,B17,101 nM
18,B18,55.4 nM
19,B19,46.2 nM
20,B20,9.8 nM
21,B21,77.8 nM
22,B22,72.1 nM
23,B23,44.2 nM
